# Values of other authors, collected in patent US10663473B2, “Method of identifying a status of a mucosal intestinal epithelial barrier to improve treatment of inflammatory bowel disease” (Maximus Diagnostic Technologies LLC, priority 2016, dated 2020).
# System: IBD patients
# Conditions: all CD patients
molecule,measurement,value
"certolizumab pegol: anti-TNF agent, trade name Cimzia, sold by UCB S.A. (antibody, chains of the INN, looked up, V domains shown, Fab' PEG) VH: EVQLVESGGGLVQPGGSLRLSCAASGYVFTDYGMNWVRQAPGKGLEWMGWINTYIGEPIYADSVKGRFTFSLDTSKSTAYLQMNSLRAEDTAVYYCARGYRSYAMDYWGQGTLVTVSS VL: DIQMTQSPSSLSASVGDRVTITCKASQNVGTNVAWYQQKPGKAPKALIYSASFLYSGVPYRFSGSGSGTDFTLTISSLQPEDFATYYCQQYNIYPLTFGQGTKVEIK",long-term clinical response rate,50%
